We go through 125 sequences from the supplement of paper PMC9112550, “Optimization of the antimicrobial peptide Bac7 by deep mutational scanning” (BMC Biology, 2022).
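Also: peptides expressed intracellularly from a pBAD plasmid library in pooled LB shake-flask culture, induced with 0.3% L-arabinose, DNA abundance read by NGS, three biological replicates, DESeq2 with apeglm shrinkage.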

The data set relates to Escherichia coli TOP10. Description: shrunken log2 fold change of peptide-encoding DNA abundance (4.5 h post-induction vs induction); higher = less antimicrobial activity (less host growth inhibition). The settings on record: time post-induction: 4.5 h; library: site-saturation at positions 5, 18, 19, 20.
With RRIRARPPRLPRPRPRPEYTPRP, the “shrunken log2 fold change” value is -0.0194.

As for RRIRQRPPRLPRPRPRPTKIPRP, the “shrunken log2 fold change” value was -0.13.

For RRIRKRPPRLPRPRPRPTKIPRP, the “shrunken log2 fold change” value is 0.269.

Consider RRIRMRPPRLPRPRPRPSCIPRP, for which the “shrunken log2 fold change” value was -0.27.

Take RRIRRRPPRLPRPRPRPGMVPRP: the “shrunken log2 fold change” value was 0.308.

RRIRKRPPRLPRPRPRPDEWPRP: the “shrunken log2 fold change” value stood at 0.268.

Turning to RRIRARPPRLPRPRPRPQAFPRP, the “shrunken log2 fold change” value was -0.323.

RRIRNRPPRLPRPRPRPVLPPRP: the “shrunken log2 fold change” value is -0.11.

As to RRIRRRPPRLPRPRPRPDHTPRP, the “shrunken log2 fold change” value is -0.447.

Turning to RRIRQRPPRLPRPRPRPHTLPRP, the “shrunken log2 fold change” value was -0.263.

Turning to RRIRFRPPRLPRPRPRPHYMPRP, the “shrunken log2 fold change” value was -0.737.

Consider RRIRCRPPRLPRPRPRPIKHPRP, for which the “shrunken log2 fold change” value is -0.389.

Regarding RRIRHRPPRLPRPRPRPDRGPRP, the “shrunken log2 fold change” value was -0.144.

On to RRIRIRPPRLPRPRPRPHHLPRP, for which the “shrunken log2 fold change” value is -0.221.

Regarding RRIRPRPPRLPRPRPRPCDGPRP, the “shrunken log2 fold change” value was determined as 0.0661.

RRIRHRPPRLPRPRPRPRIGPRP: the “shrunken log2 fold change” value is 0.172.

Regarding RRIRQRPPRLPRPRPRPCPMPRP, the “shrunken log2 fold change” value is -0.203.

Consider RRIRVRPPRLPRPRPRPQKFPRP, for which the “shrunken log2 fold change” value is -0.278.

Regarding RRIRERPPRLPRPRPRPFSMPRP, the “shrunken log2 fold change” value is -0.366.

Regarding RRIRSRPPRLPRPRPRPEWKPRP, the “shrunken log2 fold change” value was 0.14.

Take RRIRPRPPRLPRPRPRPLTPPRP: the “shrunken log2 fold change” value came to 0.222.

Turning to RRIRDRPPRLPRPRPRPSCHPRP, the “shrunken log2 fold change” value was -0.287.

On to RRIRDRPPRLPRPRPRPAQCPRP, for which the “shrunken log2 fold change” value came to 0.0665.

For RRIRQRPPRLPRPRPRPPKSPRP, the “shrunken log2 fold change” value turned out to be 0.18.

As for RRIRIRPPRLPRPRPRPAMMPRP, the “shrunken log2 fold change” value was -0.105.

In the case of RRIRLRPPRLPRPRPRPPKEPRP, the “shrunken log2 fold change” value worked out at 0.00696.

For the sequence RRIRLRPPRLPRPRPRPMGVPRP, the “shrunken log2 fold change” value is -0.0231.

Consider RRIRQRPPRLPRPRPRPNLPPRP, for which the “shrunken log2 fold change” value stood at 0.0275.

In the case of RRIRCRPPRLPRPRPRPYEAPRP, the “shrunken log2 fold change” value is -0.511.

In the case of RRIRFRPPRLPRPRPRPCGRPRP, the “shrunken log2 fold change” value was found to be 0.156.

As for RRIRNRPPRLPRPRPRPFSNPRP, the “shrunken log2 fold change” value was -0.214.

In the case of RRIRDRPPRLPRPRPRPQKCPRP, the “shrunken log2 fold change” value was 0.0207.

For RRIRHRPPRLPRPRPRPDNHPRP, the “shrunken log2 fold change” value is -0.323.

As for RRIRWRPPRLPRPRPRPLAIPRP, the “shrunken log2 fold change” value was 0.0258.

For the sequence RRIRYRPPRLPRPRPRPDFTPRP, the “shrunken log2 fold change” value is -0.0212.

As for RRIRERPPRLPRPRPRPPRCPRP, the “shrunken log2 fold change” value was -0.0309.

For the sequence RRIRKRPPRLPRPRPRPMCNPRP, the “shrunken log2 fold change” value turned out to be 0.26.

On to RRIRQRPPRLPRPRPRPRRQPRP, for which the “shrunken log2 fold change” value stood at 0.197.

With RRIRTRPPRLPRPRPRPIPQPRP, the “shrunken log2 fold change” value was 0.284.

Consider RRIRLRPPRLPRPRPRPKNIPRP, for which the “shrunken log2 fold change” value is -0.499.

With RRIRKRPPRLPRPRPRPGKTPRP, the “shrunken log2 fold change” value is -0.0179.

With RRIRQRPPRLPRPRPRPYFSPRP, the “shrunken log2 fold change” value is -0.451.

Consider RRIRGRPPRLPRPRPRPFVPPRP, for which the “shrunken log2 fold change” value turned out to be 0.0587.

With RRIRYRPPRLPRPRPRPHPCPRP, the “shrunken log2 fold change” value was -0.125.

Consider RRIRERPPRLPRPRPRPTLLPRP, for which the “shrunken log2 fold change” value was -0.137.

For RRIRFRPPRLPRPRPRPQKRPRP, the “shrunken log2 fold change” value worked out at 0.297.

With RRIRIRPPRLPRPRPRPSGKPRP, the “shrunken log2 fold change” value was -0.146.

Take RRIRTRPPRLPRPRPRPFQFPRP: the “shrunken log2 fold change” value was -0.131.

In the case of RRIRYRPPRLPRPRPRPVYEPRP, the “shrunken log2 fold change” value came out at 2.81.

Consider RRIRSRPPRLPRPRPRPATFPRP, for which the “shrunken log2 fold change” value is -0.366.

Take RRIRLRPPRLPRPRPRPDNQPRP: the “shrunken log2 fold change” value is -0.889.

Consider RRIRQRPPRLPRPRPRPTIYPRP, for which the “shrunken log2 fold change” value is -0.552.

Turning to RRIRIRPPRLPRPRPRPNMPPRP, the “shrunken log2 fold change” value was -0.611.

For RRIRQRPPRLPRPRPRPAWCPRP, the “shrunken log2 fold change” value was 0.0518.

As to RRIRPRPPRLPRPRPRPETVPRP, the “shrunken log2 fold change” value was found to be 0.207.

Consider RRIRHRPPRLPRPRPRPWVKPRP, for which the “shrunken log2 fold change” value is -0.0135.

For RRIRGRPPRLPRPRPRPEENPRP, the “shrunken log2 fold change” value came to 1.21.

Regarding RRIRARPPRLPRPRPRPANVPRP, the “shrunken log2 fold change” value is -0.0645.

Regarding RRIRWRPPRLPRPRPRPYDCPRP, the “shrunken log2 fold change” value was found to be 0.00333.

Consider RRIRDRPPRLPRPRPRPGHPPRP, for which the “shrunken log2 fold change” value is 0.813.

Turning to RRIRVRPPRLPRPRPRPKPVPRP, the “shrunken log2 fold change” value stood at 0.42.

For RRIRFRPPRLPRPRPRPPMYPRP, the “shrunken log2 fold change” value was -0.395.

In the case of RRIRNRPPRLPRPRPRPCALPRP, the “shrunken log2 fold change” value is -0.135.

Regarding RRIRIRPPRLPRPRPRPWHPPRP, the “shrunken log2 fold change” value was -0.383.

As to RRIRGRPPRLPRPRPRPEVDPRP, the “shrunken log2 fold change” value amounted to 1.84.

Turning to RRIRIRPPRLPRPRPRPDNSPRP, the “shrunken log2 fold change” value was -1.35.

Turning to RRIRTRPPRLPRPRPRPGDFPRP, the “shrunken log2 fold change” value was -0.093.

As to RRIRCRPPRLPRPRPRPYGKPRP, the “shrunken log2 fold change” value was -0.307.

Regarding RRIRTRPPRLPRPRPRPIHAPRP, the “shrunken log2 fold change” value was -0.0176.

Regarding RRIRCRPPRLPRPRPRPQNLPRP, the “shrunken log2 fold change” value was -0.49.

For RRIRFRPPRLPRPRPRPAHTPRP, the “shrunken log2 fold change” value is -0.282.

As for RRIRWRPPRLPRPRPRPDYQPRP, the “shrunken log2 fold change” value is -0.101.

On to RRIRFRPPRLPRPRPRPLHTPRP, for which the “shrunken log2 fold change” value was -0.262.

Regarding RRIRCRPPRLPRPRPRPCPYPRP, the “shrunken log2 fold change” value is -0.215.

On to RRIRVRPPRLPRPRPRPYCPPRP, for which the “shrunken log2 fold change” value was -0.462.

For RRIRKRPPRLPRPRPRPIWPPRP, the “shrunken log2 fold change” value turned out to be 0.345.

For the sequence RRIRTRPPRLPRPRPRPTTRPRP, the “shrunken log2 fold change” value turned out to be 0.223.

On to RRIRARPPRLPRPRPRPLQCPRP, for which the “shrunken log2 fold change” value was 0.049.

On to RRIRGRPPRLPRPRPRPGFNPRP, for which the “shrunken log2 fold change” value was found to be 0.235.

RRIRCRPPRLPRPRPRPMRWPRP: the “shrunken log2 fold change” value was 0.325.

With RRIRKRPPRLPRPRPRPFRDPRP, the “shrunken log2 fold change” value was found to be 0.222.

Consider RRIRSRPPRLPRPRPRPTARPRP, for which the “shrunken log2 fold change” value is 0.44.

For the sequence RRIRMRPPRLPRPRPRPTPFPRP, the “shrunken log2 fold change” value came to 0.715.

Regarding RRIRNRPPRLPRPRPRPSITPRP, the “shrunken log2 fold change” value is -0.656.

For the sequence RRIRVRPPRLPRPRPRPCKAPRP, the “shrunken log2 fold change” value was found to be 0.033.

For the sequence RRIRGRPPRLPRPRPRPNMVPRP, the “shrunken log2 fold change” value was -0.00462.

On to RRIRNRPPRLPRPRPRPHIEPRP, for which the “shrunken log2 fold change” value is -0.195.

With RRIRKRPPRLPRPRPRPYFFPRP, the “shrunken log2 fold change” value was 0.168.

As for RRIRVRPPRLPRPRPRPSAAPRP, the “shrunken log2 fold change” value came out at 0.298.

Consider RRIRMRPPRLPRPRPRPLNNPRP, for which the “shrunken log2 fold change” value stood at 0.0119.

Turning to RRIRDRPPRLPRPRPRPGEVPRP, the “shrunken log2 fold change” value was determined as 0.247.

Regarding RRIRYRPPRLPRPRPRPNPQPRP, the “shrunken log2 fold change” value was -0.0909.

Regarding RRIRSRPPRLPRPRPRPDQHPRP, the “shrunken log2 fold change” value was -0.0484.

Turning to RRIRIRPPRLPRPRPRPYWEPRP, the “shrunken log2 fold change” value is -0.152.

Turning to RRIRSRPPRLPRPRPRPGCIPRP, the “shrunken log2 fold change” value amounted to 0.0242.

In the case of RRIRRRPPRLPRPRPRPQRTPRP, the “shrunken log2 fold change” value stood at 0.152.

As to RRIRKRPPRLPRPRPRPSHHPRP, the “shrunken log2 fold change” value came to 0.02.

As to RRIRPRPPRLPRPRPRPMLHPRP, the “shrunken log2 fold change” value was -0.0917.

Regarding RRIRNRPPRLPRPRPRPKPNPRP, the “shrunken log2 fold change” value turned out to be 0.513.

For RRIRVRPPRLPRPRPRPMSQPRP, the “shrunken log2 fold change” value is -0.296.

In the case of RRIRYRPPRLPRPRPRPLRNPRP, the “shrunken log2 fold change” value was -0.277.

As to RRIRWRPPRLPRPRPRPFDHPRP, the “shrunken log2 fold change” value turned out to be 0.124.

In the case of RRIRVRPPRLPRPRPRPNSSPRP, the “shrunken log2 fold change” value was -0.0634.

Turning to RRIRNRPPRLPRPRPRPSGIPRP, the “shrunken log2 fold change” value was -0.983.

As to RRIRWRPPRLPRPRPRPFIHPRP, the “shrunken log2 fold change” value was -0.286.

Turning to RRIRHRPPRLPRPRPRPQLLPRP, the “shrunken log2 fold change” value is -0.197.

With RRIRNRPPRLPRPRPRPLSQPRP, the “shrunken log2 fold change” value was -0.00581.

RRIRARPPRLPRPRPRPMGPPRP: the “shrunken log2 fold change” value is 0.161.

RRIRERPPRLPRPRPRPPMTPRP: the “shrunken log2 fold change” value is -0.163.

As for RRIRGRPPRLPRPRPRPNINPRP, the “shrunken log2 fold change” value is 0.337.

For RRIRSRPPRLPRPRPRPHPQPRP, the “shrunken log2 fold change” value was 0.0419.

For the sequence RRIRWRPPRLPRPRPRPLYCPRP, the “shrunken log2 fold change” value is -0.22.

Take RRIRWRPPRLPRPRPRPWDQPRP: the “shrunken log2 fold change” value turned out to be 0.00408.

In the case of RRIRQRPPRLPRPRPRPCACPRP, the “shrunken log2 fold change” value turned out to be 0.0128.

Regarding RRIRMRPPRLPRPRPRPKDMPRP, the “shrunken log2 fold change” value stood at 0.0907.

Turning to RRIRCRPPRLPRPRPRPMLEPRP, the “shrunken log2 fold change” value is 0.293.

For the sequence RRIRDRPPRLPRPRPRPLEKPRP, the “shrunken log2 fold change” value turned out to be 0.0929.

Take RRIRGRPPRLPRPRPRPLEAPRP: the “shrunken log2 fold change” value was found to be 1.44.

As to RRIRWRPPRLPRPRPRPQCMPRP, the “shrunken log2 fold change” value is -0.157.

On to RRIRFRPPRLPRPRPRPHQAPRP, for which the “shrunken log2 fold change” value was -0.0233.

In the case of RRIRGRPPRLPRPRPRPIISPRP, the “shrunken log2 fold change” value worked out at 0.507.

With RRIRIRPPRLPRPRPRPPSFPRP, the “shrunken log2 fold change” value is -0.213.

As for RRIRLRPPRLPRPRPRPNDCPRP, the “shrunken log2 fold change” value amounted to 0.0412.

Take RRIRWRPPRLPRPRPRPKGFPRP: the “shrunken log2 fold change” value stood at 0.437.

For RRIRGRPPRLPRPRPRPTANPRP, the “shrunken log2 fold change” value was found to be 1.09.
